Experimental data reported in patent publication US20240034779A1 (Takeda / Millennium, published 2024).

Columns and labels:
[1] = molecular target: T1, human complement factor D (CFD) (human, UniProt P00746 26-253, limits assumed); assay: SPR (Biacore), pH 5.5
T1 construct: also called human CFD; adipsin

[2] = molecular target: T2, cynomolgus complement factor D (CFD) (cynomolgus monkey); assay: SPR (Biacore), pH 5.5
T2 construct: also called cyno CFD; cynomolgus CFD

[3] = molecular target: T2, cynomolgus complement factor D (CFD); assay: SPR (Biacore), pH 7.4
[4] = molecular target: T1, human complement factor D (CFD); assay: SPR (Biacore), pH 7.4; pH 7.4

T1 sequence (P00746 26-253 limits assumed): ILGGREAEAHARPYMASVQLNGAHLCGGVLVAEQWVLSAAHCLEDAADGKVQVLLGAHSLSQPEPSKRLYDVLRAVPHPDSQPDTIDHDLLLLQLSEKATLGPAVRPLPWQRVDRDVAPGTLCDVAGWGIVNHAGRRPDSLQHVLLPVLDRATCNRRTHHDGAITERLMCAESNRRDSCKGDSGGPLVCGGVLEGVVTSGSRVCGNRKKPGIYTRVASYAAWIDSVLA

Kd [1]: 805 nM
Kd [2]: 4.59 nM
Kd [3]: 0.037 nM
Kd [4]: 0.002 nM
B1: anti-CFD antibody 2 (clone 169C8) (antibody, human IgG1, lambda, L234A L235A, V domains shown)
VH: EVQVQESGPGLVKPSQTLSLTCTVSGGSITTSYYAWSWIRQPPGKGLEWMGDIANDGSTYYSPSLESRTSISRDTSKNQFSLQLSSVTPEDTAVYYCARLRSLYTDYDPHYYDYWGQGTQVTVSS
VL: SSALTQPSALSVTKGQTAKITCQGDLLPRHYAHWYQQKTGQAPKLIVYDDDIRPSGIPERFSGSNSGGVATLTIAGAQAEDEADYHCQSADSNDDAVFGGGTHLTVLS
notes: also called anti-CFD mAb 2; ASHE mAb
